From US11479601B2, “Antibodies specific to Sonic Hedgehog and method of use thereof” (The Regents of the University of California, priority 2016, dated 2022)

Experiments:
[1] = system: Shh; assay: Western blot binding to purified and cell-expressed Shh; set-up: species or system human; conditions: purified Shh and Shh expressed endogenously and/or exogenously in cells
Description: FIGS. 15A and 15B. Antibodies bind target SHh via Western blot. (FIG. 15A) Purified, recombinant human Shh (19.7 kDa, >98% purity by SDS-PAGE) was probed by the indicated antibodies. (FIG. 15B) Cell lysates from HEK-293T cells (PHX—Phoenix cells), with or without exogenous expression of full-length Shh, and A549 cells were probed with the antibodies produced by clones 2G4 and 2D9. Full-length Shh: ˜50 kDa; N-terminal Shh: ˜19 kDa; C-terminal Shh: ˜25 kDa. Sample 2 was lysate from PHX cells transfected with full-length Shh DNA for about 24 hours. The exogenously expressed Shh appears to be cleaved into N-terminal and C-terminal Shh peptides. Both PHX cells and A549 cells endogenously express Shh.

[2] = target: T1, Shh in A549 cells (Homo sapiens, UniProt Q15465); assay: Flow cytometry of purified antibodies on A549 cells (vector control or pCMV-Shh); type: binding
T1 construct: 1) 293T (endogenous Shh), 2) 293T (bearing exogenously transfected Shh) and 3) A549 (Shh-expressing); endogenous in cells; host or cells: 293T and A549 (endogenous); also 293T and A549 transiently transfected with pCMV-Shh (Origene)
Description: A549, 293T or 293T (+pCMV Shh) cells were labeled with Sonic Hedgehog (Shh) antibody (Abcam 53281, 1:100) or therapeutic test antibodies (1:100) for 1 hour at RT post serum blocking. Following two PBS washes, a FITC-conjugated secondary antibody (Abcam 97029, 1:100) or an Alexa-Fluor 647 (Invitrogen, 1:1000) was used to label cells. Samples were screened by flow cytometry using an Accuri™ C6 machine (BD Biosciences). For fluorescence activated cell sorting, samples were sorted using an S3e™ Cell Sorter (Bio-Rad) and the Shh+ population was collected. For all experiments, cells processed without primary antibody served as a negative control. Experiments were performed in duplicates or triplicates.
For the purpose of selecting the best C-term Shh antibodies from over 50 hybridoma clones, two sets of screening assays were designed. First, the same Shh C-term peptides (AA 247-264 and 448-462, KLH-free version) used to mount an immune response in mice was employed in an ELISA-based assay with supernatants from antibody-producing hybridoma clonal cells. […] To confirm specific recognition, A549 (+vector control) cells and A549 cells transfected with exogenous Shh were labeled with 2G4 and 2D9 and assessed via flow cytometry. […] Finally, the Kd values of both antibodies with recombinant full-length Shh were calculated and nanomolar binding affinities were observed (FIG. 48C).

[3] = system: other lung and pancreatic cancer cell lines; assay: CellTiter-Glo cell viability assay, other cancer cell lines; type: cell-based; conditions: 96 hours
Description: Logarithmically growing cells were plated in antibiotic-free medium supplemented with 2% fetal bovine serum at a density of 5,000 cells per well in clear-bottom 96-well plates. The next day cells were treated (triplicates) with increasing doses of in-house therapeutic antibodies (reconstituted in PBS) or PBS controls for 96 hours and subsequently assessed for cell viability by measuring ATP content with CellTiter-Glo Luminescent Cell Viability Assay (Promega). Signal intensity was measured on a Glomax™ 96 Microplate Luminometer (Promega) and percent cell survival was calculated based on the reading of PBS control cells set as 100%.

[4] = system: GLI; assay: Ex vivo GLI expression in excised A549 xenograft tumors; set-up: species or system mice; conditions: tumors after 8 mg/kg treatment, versus IgG controls
Description: The in vivo effect of the C-terminal Shh antibodies were tested using the A549 cell subcutaneous xenograft tumor model in mice, as described in Example 1. After xenograft formation, animals were intra-tumor injected with a C terminal Shh antibody (2G4 or 2D9; each at 158 μg), or a control solution, 3 times a week for about 3 weeks (at 2-3 day intervals). Tumor volume was determined, as described in Example 1, every 2 days. Weight and size of the excised tumor were determined after the antibody treatment. […]
Total protein from whole-cell lysates was prepared with M-PER buffer (ThermoFisher Scientific) and from frozen tissues with T-PER (ThermoFisher Scientific) supplemented with protease and phosphatase inhibitors (Roche). Subsequently protein concentrations were determined via a Bradford assay. Equal quantities of proteins were combined with 5× protein loading buffer and separated by SDS-PAGE followed by PVDF membrane transfer. […]
Antibody-treated tumors were harvested to extract total RNA using Trizol (Invitrogen) and cDNA was synthesized using reverse transcriptase from iScript's cDNA Synthesis Kit (Bio-Rad). Real-time quantitative reverse transcript-polymerase chain reaction (qRT-PCR) was performed with TaqMan® Universal PCR Master Mix (Life Technologies) using gene specific PCR primers for human […] (Life Technologies). […]

endogenous Shh recognized (flow cytometry) ([2]; A549 (+vector control)): 0.5%
exogenous Shh recognized (flow cytometry) ([2]; A549 cells transfected with exogenous Shh): 6%
B1: 2G4: purified mouse monoclonal C-terminal Shh antibody from hybridoma sub-clone 2G4 of clone 1C11, IgG1 kappa (antibody, V domains shown)
VH: EVKLVESGGGLVKPGGSLKLSCAASGFTFSSYTMSWVRQTPAKRLEWVATISSGGGNTYYPDSVKGRFTISRDNARNTLYLQMSSLRSEDTAMYYCARDYRSLFAYWGQGTLVTVSA
VL: QIVLTQSPAIMSASPGEKVTITCSASSSVSYMHWFQQKPGTSPKLWIYSTSNLASGVPARFSGSGSGTSYSLTISRMEAEDAATYYCQQRSSYPFTFGSGTKLEIK
binding to Shh by Western blot [1]: bound to purified Shh
growth of other lung and pancreatic cancer cell lines [3]: inhibited the growth
GLI transcripts (qRT-PCR) and GLI polypeptide expression (Western blot) in tumors [4]: significant reduction in GLI transcripts
